# The nanobody polyreactivity screen of Harvey et al. (2022)
# Test: yeast display, Sf9 membrane polyspecificity reagent, FACS + sequencing; frameworks hold sequencing errors
# Method in brief: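 In a synthetic yeast display library (Saccharomyces cerevisiae BJ5465), nanobody expression was induced with galactose for 36–48 hours. FACS gates were set low and high (top ~1%) using anti-HA fluorescence for expression and streptavidin fluorescence for binding of the Sf9 membrane reagent. Each polyreactivity label is drawn from the gate of origin.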
row,Sequence,polyreactivity (PSR sort gate)
1,QVQLVESGGGLVQAGGSLRLSCAASGSTFSKYAMGWYRQAPGKERELVAAISRSGGNTYYADSVKGRFTISRDNAKNTVYLQMNSLKPEDTAVYYCATTLYSYSTGRYRLDYWGQGTQVTVSS,high polyreactivity
2,QVQLVESGGGLVQAGGSLRLSCAASGSTFSLNAMGWYRQAPGKERELVAAISNVGDTYYADSVKGRFTISRDNAKNTVYLQMNSLKPEDTAVYYCAADGASYYYEYDYWGQGTQVTVSS,low polyreactivity
3,QVQLVESGGGLVQAGGSLRLSCAASGSTFSLYARGWYRQAPGKETELVAAITRGGNTYYADSVKGRFTISRDNAKNTVYLQMNSLKPEDTAVYYCNAYYYQFRGIRVSGGYWGQGTQVTVSS,high polyreactivity
4,QVQLVESGGGLVQAGGSLRLSCAASGSTFSLYDMGWYRQAPGKERELVAAISYSGGSTYYADSVKGRFTISRDNAKNTVYLQMNSLKPEDTAVFYCATRLFYPRFFYWGQGTQVTVSS,high polyreactivity
5,QVQLVESGGGLVQAGGSLRLSCAASGSTFSNNAMGWYRQAPGNERELVAAISRSGGSTYYADSVKGRFTISRDNAKNTVYLQMNSLKPEDTAVYYCAVSPRYYRNGGAHLQYDYWGQGTHVTVSS,high polyreactivity
6,QVQLVESGGGLVQAGGSLRLSCAASGSTFSNNTMGWYRQAPGKERELVAAISWRGTRTYYADSVKGRFTISRDNAKNTVYLQMNSLKPEDTAVYYCNKLPTYPDYGYDSWGQGTQVTVSS,high polyreactivity
7,QVQLVESGGGLVQAGGSLRLSCAASGSTFSPNAMGWYRQAPGKERELVAAISGSGGSTYYADSVKGRFTISRDNAKNTVYLQMNSLKPEDTAVYYCAADSYYDGDYWGQGTQVTVSS,low polyreactivity
8,QVQLVESGGGLVQAGGSLRLSCAASGSTFSPNAMGWYRQAPGKERELVAAITWSGGSNTYADSVKGRFTISRDNAKNTVYLQMNSLKPEDTAVYYCAADTKYDNDYWGQGTQVTVSS,low polyreactivity
9,QVQLVESGGGLVQAGGSLRLSCAASGSTFSPYAMGWYRQAPGKERELVAAITRSGSSTYYADSVKGRFTISRDNAKNTVYLQMNSLKPEDTAVYYCAADTGVTRSYRYTSWRIKYESWGQGTQVTVSS,low polyreactivity
10,QVQLVESGGGLVQAGGSLRLSCAASGSTFSRNAMGWYRQAPGKERELVAAITQSGGRTYYADSVKGRFTISRDNAKNTVYLQMNSLKPEDTAVYYCNARGRRSGYISGYDYWGQGTQVTVSS,high polyreactivity
11,QVQLVESGGGLVQAGGSLRLSCAASGSTFSRNAMGWYRQAPGKERELVAAITSGGRTYYADSVKGRFTISRDNAKNTVYLQMNSLKPEDTAVYYCAAVHRYPIHYDYWGQGTQVTVSS,low polyreactivity
12,QVQLVESGGGLVQAGGSLRLSCAASGSTFSRYAMGWYRPAPGKERELVAAISGTDDSTYYADSVKGRFTISRDNAKNTVYLQMNSLKPEDTAVYYCAARLVESRYGFGYEYYYWGQGTQVTVSS,low polyreactivity
13,QVQLVESGGGLVQAGGSLRLSCAASGSTFSRYAMGWYRPAPGKERELVATITRGGSTNYADSVKGRFTISRDNAQNTVYLQMTSLKPEDTAVYYCNKTARYVDGRGDYWGQGTQVTVSS,low polyreactivity
14,QVQLVESGGGLVQAGGSLRLSCAASGSTFSRYAMGWYRQAPGKEREFVAAISRRAGGTYYADSVKGRFTISRDNAKNTVYLQMNSVKPEDTAVYYCAKVLPRDYIGRATYDYWGQGTQVTVSS,high polyreactivity
15,QVQLVESGGGLVQAGGSLRLSCAASGSTFSRYAMGWYRQAPGKERELVAAISWSGASTYYADSVKGRFTISRDNAKNTVYLQMNRLKPEDTSVYYCAKVARQNWFRYYYDYWGQGTQVTVSS,high polyreactivity
16,QVQLVESGGGLVQAGGSLRLSCAASGSTFSRYTMGWYRQAPGKEWELVAAISFRASSTYYADSVKGRFTISRDNAKNTVYLQMNSLKPEDTAVYYCAARNVFRYRWPIEYDYWGQGTQVTVSS,low polyreactivity
17,QVQLVESGGGLVQAGGSLRLSCAASGSTFSSNAMGWYRQAPGKERELVAAIDRGGSTYYADSVKGRFTISRDNAKNTVYLQMNSLKPEDNAVYYCNAERETYDYWGQGTQVTVSS,low polyreactivity
18,QVQLVESGGGLVQAGGSLRLSCAASGSTFSSNAMGWYRQAPGKERELVAAINRTGNTYYADSVKGRFTISRDNEKNTVYLQMNSLKPEDTAVYYCNTDLNLYRGGGYWGQGTQVTVSS,low polyreactivity
19,QVQLVESGGGLVQAGGSLRLSCAASGSTFSSYAMGWYRQAPGKERELVAAINWSRTRTYYADSVKGRFTISRDNAKNTVYFQMNSVIPEDTAVYYCAAPGFGETADYDYWGHGTQVTVSS,low polyreactivity
20,QVQLVESGGGLVQAGGSLRLSCAASGSTFSSYGMGWYRQAPGKERELVAAITSSGGSTYYADSVKGRFTISRDNAKNTVYLQMNSLKPEDTAVYYCAASDVIFWLYYYWGQGTQVTVSS,low polyreactivity
21,QVQLVESGGGLVQAGGSLRLSCAASGSTFSSYVMGWYRQAPGKERELVAAISSIGGSTYYADSVKGRFTISRDNAKNTVYLQMNSLKPEDTAVYYCNADYVIYFGLYEYWGQGTQVTVSS,low polyreactivity
22,QVQLVESGGGLVQAGGSLRLSCAASGSTFSTNVMGWYRQAPGKERELVAAISTIGGSTYADSVKGRFTISRDNAKNTVYLQMNSLKPEDTAVYYCAAVFRVRRKTYGYWGQGTQVTVSS,high polyreactivity

row,Sequence,polyreactivity (PSR sort gate)
1,QVQLVESGGGLVQAGGSLRLSCAASGSTFSTYAMGWYRQAPGKERELVAAISRTGGSTYYADSVKGRFTISRDNAKNTVYLQMNSLKPEDTAVYYCAADEDWEYWAPWYDYWGQGTQVTVSS,low polyreactivity
2,QVQLVESGGGLVQAGGSLRLSCAASGSTFSTYAMGWYRQAPGKERELVARITRSDTGTYYADSVKGRFTISRDNAKNTGYLQMNSLKPEDTAVYYCAADGWYDDSGWYYGYDYWGQGTQVTVSS,low polyreactivity
3,QVQLVESGGGLVQAGGSLRLSCAASGSTFSTYVMGWYRQAPGKERELVATISYSSDSTYYADSVKVRFTISRDNAKNTVYLQMNSLKPEDSAVYYCNAARFTRRDYWGQGTQVTVSS,high polyreactivity
4,QVQLVESGGGLVQAGGSLRLSCAASGSTFSVNAMGWYRQAPGKERELVAAITRSGGSTYYEDSVKGRFTISRENAKNTVYLQMNSLKPEDTAVYYCAAVIFPLGEYWGQGTQVTVSS,low polyreactivity
5,QVQLVESGGGLVQAGGSLRLSCAASGSTFSVYAMGWYRQAPGKERELVAAITSGGSTNYADSVKGRFTISRDNAKNTVYLQMNSLKPEDTAVYYCAAYLYDTIYTSYREYDYWGQGTQVTVSS,low polyreactivity
6,QVQLVESGGGLVQAGGSLRLSCAASGSTFSVYAMGWYRQAPGTERELVAAITWSGGSTYYADSVKGRFTISRDNAKNTDYLQMNSLKPEDTAVYDCNAEGYYVWGITTYWLHQYGYWGQGTQVTVSS,low polyreactivity
7,QVQLVESGGGLVQAGGSLRLSCAASGSTFSVYGMGWYRQAPGKERELVAAITRGSRTYYADSVKGRFTISRDNAKNTVYLQMNSLKPEDTAVYYSAAKWWWRSYWGQGTQVTVSS,high polyreactivity
8,QVQLVESGGGLVQAGGSLRLSCAASGSTFSVYTMGWYRQAPGKERELVAAISRSGGRTYYADSVKGRFTISRDNAKNTVYLQMNSVKPDDTAVYYCATGYYGTYDYWGQGTQVTVSS,high polyreactivity
9,QVQLVESGGGLVQAGGSLRLSCAASGSTFSWYAMGWYRPAPGKEMELVAAISSGGSTNYADSVKGRFTISRDNAKNTVYLQMNSLKPEDTAVFYCAAVWSRFLISYSTGWWFEYWGQGTQVTVSS,low polyreactivity
10,QVQLVESGGGLVQAGGSLRLSCAASGSTFSWYAMGWYRQAPGKERELVAAITSGGSTQYADSVKGRFTISRDNAKNTVYLQMNSLKPEDTAVYYCATRRYKWGVRYDYWGQGTQVTVSS,high polyreactivity
11,QVQLVESGGGLVQAGGSLRLSCAASGSTFSYNAKGWYRQAPGKERELANYADSVKGRFTISRDKAKNTVYLQMNSLKPEDTAVYYCAAVGFSYYVIRFDYWGQGTQVTVSS,low polyreactivity
12,QVQLVESGGGLVQAGGSLRLSCAASGSTFSYNAMGCYRQAPGKESELVAAISRGDVSTYYADSVKGRFTISRDNAKNTVYLQMNSLKPEDTAVYYCAAYWYGSQYKWRYDYWGQGTQVTVSS,low polyreactivity
13,QVQLVESGGGLVQAGGSLRLSCAASGSTFSYNAMGWYRQAPGKEREFVAAITTSGVRTYYADSVKGRFTISRDNAKNTVYLQMNSLKPEDTAVYYCAARANYIFYGMDYWGQGTQVSVSS,high polyreactivity
14,QVQLVESGGGLVQAGGSLRLSCAASGSTFSYNAMGWYRQAPGKERELVAAINLRGGNTYYADSVKGRFTISRDNAKNTVYLQMNSLKPEDTAVYYCARTRRHSQNFDYWGQGTQVIVSS,high polyreactivity
15,QVQLVESGGGLVQAGGSLRLSCAASGSTFSYNAMGWYRQAPGKERELVAAISNGGSTNYADSVKGRFTISRDNAKNTVSLQMNSLKPEDTAVYYCAAHTYSELSWLVVYPYDYWGQGTQVTVSS,low polyreactivity
16,QVQLVESGGGLVQAGGSLRLSCAASGSTFSYNAMGWYRQAPGKERELVAAITSTGRTYYADSVKGRFTISRDNAKNTVYLQMNSLKPEDTAVYYCNKRARSEQYSYKYGYYYWGQGTQVTVSS,high polyreactivity
17,QVQLVESGGGLVQAGGSLRLSCAASGSTFSYNARGWYRQAPGKERELVAAITSGSSTNYADSVKGRFTISRDNAKNTVYLQMNSLKPEDTAVYYCAADGYQDKYYWLETWVGYWGQGTQVTVSS,low polyreactivity
18,QVQLVESGGGLVQAGGSLRLSCAASGSTFSYNDMGWYRQAPGKESELVADINVSVGRTYYADSVKGRFTISRDNAKNTVYLQMNSLTPEDTAVYYCNATLYTITSYVYAYDYWGQGTQVTVSS,low polyreactivity
19,QVQLVESGGGLVQAGGSLRLSCAASGSTFSYYAMGWYRQAPGKEREFVAAISRSGGRTYYADSVKGRFKISRDNAKNTVYLQLNSLKPEDTAVYYCATVYYYDFSRTHPWPGDYWGQGTQVTVSS,high polyreactivity
20,QVQLVESGGGLVQAGGSLRLSCAASGSTFSYYAMGWYRQAPGKERELVAAISRTAVSTYYADSVKGRFTISRDNAKNTVYLQMNSLKPEDTAVYYCAASHFHGYSLGYDYWGQGTQVTVSS,high polyreactivity
21,QVQLVESGGGLVQAGGSLRLSCAASGSTFSYYAMGWYRQAPGKERELVAAISSRGGSTYYADSVKGRFTISRDNAKNTVYLQMNSLKPEDTAVYYCNADHQFRSSVSGDHDYWGQGTQVTVSS,high polyreactivity
